# From PMC7376121, “In-Lipid Structure of Pressure-Sensitive Domains Hints Mechanosensitive Channel Functional Diversity” (Biophysical Journal, 2020)
# Where a chain is given by its changes, count along the chain named. Names and notes keep the numbering of the source.
# B1: Mycobacterium tuberculosis MscL Y87C, MTSSL spin-labelled (TbMscL Y87R1) (natural protein)
# chain: MLKGFKEFLARGNIVDLAVAVVIGTAFTALVTKFTDSIITPLINRIGVNAQSDVGILRIGIGGGQTIDLNVLLSAAINFFLIAFAVCFLVVLPYNTLRKKGEVEQPGDTQVVLLTEIRDLLAQTNGDSPGRHGGRGTPSPTDGPRASTESQ
# modifications: MTSSL spin label on the cysteine at 87 (R1)
# notes: also called TbY87R1
# B2: Mycobacterium tuberculosis MscL L89C, MTSSL spin-labelled (TbMscL L89R1) (natural protein)
# chain: B1 chain with C87Y, L89C
# modifications: MTSSL spin label on the cysteine at 89 (R1)
# notes: also called TbL89R1
# B3: Mycobacterium tuberculosis MscL F88C, MTSSL spin-labelled (TbMscL F88R1) (natural protein)
# chain: B1 chain with C87Y, F88C
# modifications: MTSSL spin label on the cysteine at 88 (R1)
# notes: also called TbF88R1
# Biological target: the molecule itself
# Experiment: PELDOR/DEER; spin-labelled single-cysteine channel in DDM detergent solution (50 mM sodium phosphate pH 7.5, 300 mM NaCl, 0.05% DDM), diluted 1:1 with deuterated ethylene glycol, flash frozen; Q band, 50 K; distances between the labels of the subunits of one channel
row,Protein,stoichiometry N
1,B1,5
2,B2,5
3,B3,5
